Reference: patent publication US20210246218A1 (LYVGEN BIOPHARMA SUZHOU, published 2021)

Assays:
Assay in all cases: ELISA, protein coated at 1 µg/mL
human B7-H3 protein = target: T1, human B7-H3 protein (human, UniProt Q5ZPR3 29-461, limits assumed)
T1 sequence (looked up): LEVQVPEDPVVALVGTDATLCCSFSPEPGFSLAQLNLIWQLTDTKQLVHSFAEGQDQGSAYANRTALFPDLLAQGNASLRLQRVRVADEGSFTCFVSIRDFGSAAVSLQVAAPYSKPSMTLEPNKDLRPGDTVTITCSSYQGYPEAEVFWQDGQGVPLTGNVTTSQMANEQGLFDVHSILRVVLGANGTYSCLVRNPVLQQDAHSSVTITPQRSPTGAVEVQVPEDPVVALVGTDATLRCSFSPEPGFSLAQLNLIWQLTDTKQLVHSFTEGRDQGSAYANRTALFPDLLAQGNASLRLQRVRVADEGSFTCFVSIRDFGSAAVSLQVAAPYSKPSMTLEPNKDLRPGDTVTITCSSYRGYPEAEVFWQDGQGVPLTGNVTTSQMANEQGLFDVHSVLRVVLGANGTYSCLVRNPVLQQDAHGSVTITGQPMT
Procedure: (§1) The plate was decanted and washed once; assay diluent was added at 200 μL/well. After a 1-hour incubation at room temperature, the plate was washed with PBST one time. […] These samples were added into the plate 50 μL/well. The plate was incubated 1 hour at room temperature and then washed three times with PBST. Goat anti-human IgG-H+L HRP-conjugated at 1:100,000 dilution or goat anti-mouse IgG (H+L) secondary antibody, HRP, at 1:50,000 dilution was added to the plate at 100 μL/well. The plate was incubated 1 hour at room temperature followed by washing with PBST four times. The TMB substrate solution was added 100 μL/well. The color was permitted to develop for 15 minutes and then 100 μL/well 2N H₂SO₄ was added to terminate the reaction. Absorbance at 450 nm and 620 nm was determined by a Tecan F200 Pro reader.

human LTBR protein = target: T2, human LTBR protein (human, UniProt P36941 31-227)
T2 construct: also called LT β R; LTβR
Procedure: as §1

human TIGIT protein = target: T3, human TIGIT protein (human, UniProt Q495A1 22-141)
T3 sequence (looked up): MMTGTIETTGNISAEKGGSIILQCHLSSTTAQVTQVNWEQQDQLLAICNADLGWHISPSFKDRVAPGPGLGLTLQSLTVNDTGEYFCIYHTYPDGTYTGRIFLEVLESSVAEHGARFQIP
Procedure: as §1

rat CD137 protein = target: T4, rat CD137 protein (rat, UniProt Q4W8J3 24-189)
T4 construct: Coated on ELISA plates; also called Rodent CD137
T4 sequence: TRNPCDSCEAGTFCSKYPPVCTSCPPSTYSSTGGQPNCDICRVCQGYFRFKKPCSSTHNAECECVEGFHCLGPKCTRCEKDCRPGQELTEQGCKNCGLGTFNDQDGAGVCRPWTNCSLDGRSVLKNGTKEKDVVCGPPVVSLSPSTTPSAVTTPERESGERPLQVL
Procedure: as §1

human CD47 protein = human CD47 protein (human, UniProt Q08722 19-139)
Procedure: as §1

human PD-1 protein = human PD-1 protein (human, UniProt Q15116 25-167)
Procedure: as §1

human LAG-3 protein = target: T5, human LAG-3 protein (human, UniProt P18627 23-450)
T5 sequence (looked up): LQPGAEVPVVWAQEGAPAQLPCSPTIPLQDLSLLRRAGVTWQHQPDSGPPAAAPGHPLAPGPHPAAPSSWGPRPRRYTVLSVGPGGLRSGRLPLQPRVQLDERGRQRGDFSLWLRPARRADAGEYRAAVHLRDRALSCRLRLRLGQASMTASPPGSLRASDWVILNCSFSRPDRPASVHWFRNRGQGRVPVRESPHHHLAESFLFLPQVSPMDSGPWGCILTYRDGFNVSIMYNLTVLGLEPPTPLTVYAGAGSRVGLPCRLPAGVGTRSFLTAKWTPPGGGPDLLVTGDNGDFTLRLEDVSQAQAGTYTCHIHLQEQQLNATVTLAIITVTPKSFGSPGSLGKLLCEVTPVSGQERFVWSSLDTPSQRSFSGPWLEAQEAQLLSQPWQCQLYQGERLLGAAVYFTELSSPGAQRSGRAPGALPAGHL
Procedure: as §1

mouse CD137 protein = target: T6, mouse CD137 protein (mouse, UniProt P20334 24-187)
T6 construct: Coated on ELISA plates; also called Rodent CD137; murine CD137
T6 sequence (looked up): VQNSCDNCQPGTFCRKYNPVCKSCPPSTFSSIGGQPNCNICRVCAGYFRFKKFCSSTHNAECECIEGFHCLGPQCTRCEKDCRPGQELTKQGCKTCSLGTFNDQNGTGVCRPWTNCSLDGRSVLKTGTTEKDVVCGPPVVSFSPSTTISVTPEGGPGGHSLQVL
Procedure: as §1

human GITR protein = target: T7, human GITR protein (human, UniProt Q9Y5U5 26-161)
T7 sequence (looked up): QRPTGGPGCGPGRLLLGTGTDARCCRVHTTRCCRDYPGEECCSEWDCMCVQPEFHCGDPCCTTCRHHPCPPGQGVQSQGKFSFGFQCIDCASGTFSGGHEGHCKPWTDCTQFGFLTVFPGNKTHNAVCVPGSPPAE
Procedure: as §1

Sequence of human CD47 protein (Q08722 19-139 limits assumed): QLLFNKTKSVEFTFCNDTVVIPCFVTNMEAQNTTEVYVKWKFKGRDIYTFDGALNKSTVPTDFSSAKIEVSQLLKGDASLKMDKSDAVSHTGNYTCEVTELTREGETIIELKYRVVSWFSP
Sequence of human PD-1 protein (Q15116 25-167 limits assumed): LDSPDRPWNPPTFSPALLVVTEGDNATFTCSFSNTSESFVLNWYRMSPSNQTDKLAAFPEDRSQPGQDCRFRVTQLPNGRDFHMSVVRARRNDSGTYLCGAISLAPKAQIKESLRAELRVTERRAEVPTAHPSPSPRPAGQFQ
T2 sequence (P36941 31-227 limits assumed): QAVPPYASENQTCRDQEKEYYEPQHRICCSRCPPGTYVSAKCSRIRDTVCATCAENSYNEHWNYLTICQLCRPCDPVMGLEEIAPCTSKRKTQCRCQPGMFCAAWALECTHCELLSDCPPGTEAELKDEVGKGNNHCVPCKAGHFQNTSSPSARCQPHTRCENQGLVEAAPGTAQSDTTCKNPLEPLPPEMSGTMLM

B1: Clone 3712-IgG1v (IgG1v/kappa) (antibody)
heavy: QVQLVQSGAEVKKPGASVKVSCKASGYTFAGFEMHWVRQAPGQGLEWMGAIDPKTGGTDYNQKFKDRVTMTRDTSISTAYMELSRLRSDDTAVYYCARDLGYFDVWGQGTLVTVSSASTKGPSVFPLAPSSKSTSGGTAALGCLVKDYFPEPVTVSWNSGALTSGVHTFPAVLQSSGLYSLSSVVTVPSSSLGTQTYICNVNHKPSNTKVDKKVEPKSCDKTHTCPPCPAPELLGPSVFLFPPKPKDTLMISRTPEVTCVVVDVEHEDPEVKFNWYVDGVEVHNAKTKPREEQYNSTYRVVSVLTVLHQDWLNGKEYKCKVSNKALPAPIEKTISKAKGQPREPQVYTLPPSREEMTKNQVSLTCLVKGFYPSDIAVEWESNGQPENNYKTTPPVLDSDGSFFLYSKLTVDKSRWQQGNVFSCSVMHEALHNHYTQKSLSLSPGK
light: DIQMTQSPSSLSASVGDRVTITCRASQDIRSNLNWYQQKPGGAVKLLIYYTSRLHSGVPSRFSGSGSGTDYTLTISSLQPEDFATYFCQQSEKLPRTFGGGTKVEIRRTVAAPSVFIFPPSDEQLKSGTASVVCLLNNFYPREAKVQWKVDNALQSGNSQESVTEQDSKDSTYSLSSTLTLSKADYEKHKVYACEVTHQGLSSPVTKSFNRGEC
notes: copies: 2 + 2
B1: no binding (tested: 10 µg/mL and 1 µg/mL) (human B7-H3 protein); no binding (tested: 10 µg/mL and 1 µg/mL) (human LTBR protein); no binding (tested: 10 µg/mL and 1 µg/mL) (human TIGIT protein). B1: no binding (tested: 10 µg/mL and 1 µg/mL) (rat CD137 protein); no binding (tested: 10 µg/mL and 1 µg/mL) (human CD47 protein); no binding (tested: 10 µg/mL and 1 µg/mL) (human PD-1 protein). B1: no binding (tested: 10 µg/mL and 1 µg/mL) (human LAG-3 protein); no binding (tested: 10 µg/mL and 1 µg/mL) (mouse CD137 protein); no binding (tested: 10 µg/mL and 1 µg/mL) (human GITR protein).
